2 molecules from paper PMC8421406, “C9orf72-derived arginine-rich poly-dipeptides impede phase modifiers” (Nature Communications, 2021) can be followed below.

In data set [1] the test system is MBP:FUS (full-length FUS droplets) / Kapβ2. The data set is described as follows: Turbidity assay of FUS droplet formation (OD 395 nm). The settings on record: 8 μM Kapβ2, 8 μM MBP:FUS. It counts as biochemical.
For data set [2], the system named is FUS droplets (MBP:FUS/MBP:FUS:EGFP) / Kapβ2. The data set is described as follows: Fluorescence microscopy of FUS droplets. In kind it is biochemical. The settings on record: 16 μM Kapβ2, 16 μM Kapβ2–M9M complex, 50 μM PR20, repeated three times.
Data set [3] has as its system GFP:FUS-LC:NLS / mCh:FUS-LC hydrogel. The data set is described as follows: Hydrogel binding assay, GFP:FUS-LC:NLS on mCh:FUS-LC hydrogel. In kind it is biochemical. The settings on record: Kapβ2 0.1-1.0 µM; PR20 with 1.0 µM Kapβ2. On the procedure:
The experiment was independently repeated three times with similar results. Here, 10 μm scale bars are shown in the image. e Graphical description of hydrogel binding assay. Hydrogels of mCh:LC-domain accumulate GFP:LC-domain as it co-polymerizes. f Hydrogel binding assay for FUS-LC in the absence and presence of Kapβ2. mCh:FUS-LC (lower images) were incubated with 1.0 µM of GFP (left panel) or 1.0 µM of GFP:FUS-LC:NLS (right panel) in the presence of different concentrations of Kapβ2 (left to right: 0.1, 0.3, and 1.0 µM). g Quantitative analysis of Fig. 1f. Relative intensity of GFP signals is shown as the mean of three independent experiments ± SD, analyzed by one-way ANOVA followed by Dunnett’s multiple comparison test (**P < 0.01, ***P < 0.001). h Hydrogel binding assay for FUS-LC in the absence and presence of Kapβ2 and/or PR20. Hydrogel droplets of mCh:FUS-LC (lower images) were incubated with 1.0 µM of GFP (left panel) or GFP:FUS-LC:NLS (right panel). GFP:FUS-LC:NLS containing Kapβ2 (1.0 µM) was challenged for homotypic polymer extension in the absence or presence of different concentration of PR20. i Quantitative analysis of Fig. 1h. Relative intensity of GFP signals is shown as the mean of three independent experiments ± SD, analyzed by one-way ANOVA followed by Dunnett’s multiple comparison test (**P < 0.01). Source data are provided as a Source Data file. […]

The test system of data set [4] is GFP:FUS-LC / mCh:FUS-LC hydrogel. The data set is described as follows: Hydrogel binding assay, GFP:FUS-LC on mCh:FUS-LC hydrogel. In kind it is biochemical. The settings on record: Kapβ2 0.1-10.0 µM; 1.0 µM GFP:FUS-LC. An excerpt:
Expression plasmids for recombinant proteins (GFP/mCherry fusion LC-domain of FUS (residue 2–214, GFP/mCh:FUS-LC) and GFP/mCherry fusion LC-domain of hnRNPA2 (residue 181–341, GFP/mCh:hnRNPA2-LC)) were obtained from the Steven L. McKnight Laboratory. Expression plasmid for GFP:FUS-LC fusion NLS (residue 501–526, GFP:FUS-LC:NLS), mCh fusion LC-domain of TDP43 (residue 262–414, mCh:TDP43-LC), and GFP-tagged cNLS (residue 78–99) fusion TDP43-LC (GFP:cNLS:TDP43-LC) were constructed using In-Fusion HD Cloning Kit (Takara Bio, Inc.). GFP/mCh:FUS-LC, GFP:FUS-LC:NLS, and GFP/mCh:hnRNPA2-LC were expressed in E. coli BL21(DE3) cells with 0.5 mM IPTG at 20 °C overnight and purified by Ni-NTA Agarose (FUJIFILM Wako Pure Chemical Corporation), as described in a previous study. GFP:cNLS:TDP43-LC were expressed with 1.0 mM IPTG at 37 °C for 3 h and mCh:TDP43-LC were expressed with 0.5 mM IPTG at 16 °C overnight. GFP:cNLS:TDP43-LC and mCh:TDP43-LC were purified by Ni-NTA as described in a previous study[48] with some modifications. […] Relative intensity of GFP signals across the hydrogel droplets were measured in triplicate by using the profile plot mode in ImageJ. […]

The test system of a further data set is Kapβ2. The data set is described as follows: Solution NMR (1H-13C methyl) of labelled Kapβ2. The settings on record: comparison of perturbations by PR20, M9M and FUS-ΔNLS. It counts as binding. On the procedure: The Kapβ2 expression plasmid was transformed into BL21(DE3) cells. The protein samples with ^1H,^13C-labeled methyl groups in deuterium background were prepared as described in a previous study. The cells were grown in medium with ^15NH4Cl (2 gL^−1, CIL) and ^2H7-glucose (2 g L^−1, CIL) in 99.9% ^2H2O (Isotec). The precursors for methyl groups of Ile, Val, and Leu, α-ketobutyric acid (50 mg L^−1) and α-ketoisovaleric acid (80 mg L^−1), and [^13CH3] methionine (50 mg L^−1) were added to the culture 1 h before the addition of IPTG. Protein expression was induced by the addition of 0.5 mM IPTG at OD600 ~ 0.6, followed by ~16 h of incubation at 25 °C. […] Protein concentration was determined spectrophotometrically at 280 nm using a corresponding extinction coefficient.
The isotopically labeled Kapβ2 was prepared in the NMR buffer containing 20 mM ^2H-Tris pH 7.4, 150 mM NaCl, 2 mM MgCl2, 2 mM DTT, and 2% glycerol, concentrated to 20 μM. […] Perturbation of the side chain methyl resonances were each monitored using ^1H-^13C heteronuclear multiple quantum coherence. […] The perturbations of the resonances were evaluated based on chemical shift change or intensity change. […]
In order to investigate the interaction between Kapβ2 and PR poly-dipeptide by NMR, the NMR spectra of the isotopically labeled Kapβ2 in the absence and presence of the synthetic peptide of PR20:HA were measured. […]

B1: Kapβ2: nuclear import receptor karyopherin-β2, recombinant (protein)
chain: MVWDRQTKMEYEWKPDEQGLQQILQLLKESQSPDTTIQRTVQQKLEQLNQYPDFNNYLIFVLTKLKSEDEPTRSLSGLILKNNVKAHFQNFPNGVTDFIKSECLNNIGDSSPLIRATVGILITTIASKGELQNWPDLLPKLCSLLDSEDYNTCEGAFGALQKICEDSAEILDSDVLDRPLNIMIPKFLQFFKHSSPKIRSHAVACVNQFIISRTQALMLHIDSFIENLFALAGDEEPEVRKNVCRALVMLLEVRMDRLLPHMHNIVEYMLQRTQDQDENVALEACEFWLTLAEQPICKDVLVRHLPKLIPVLVNGMKYSDIDIILLKGDVEEDETIPDSEQDIRPRFHRSRTVAQQHDEDGIEEEDDDDDEIDDDDTISDWNLRKCSAAALDVLANVYRDELLPHILPLLKELLFHHEWVVKESGILVLGAIAEGCMQGMIPYLPELIPHLIQCLSDKKALVRSITCWTLSRYAHWVVSQPPDTYLKPLMTELLKRILDSNKRVQEAACSAFATLEEEACTELVPYLAYILDTLVFAFSKYQHKNLLILYDAIGTLADSVGHHLNKPEYIQMLMPPLIQKWNMLKDEDKDLFPLLECLSSVATALQSGFLPYCEPVYQRCVNLVQKTLAQAMLNNAQPDQYEAPDKDFMIVALDLLSGLAEGLGGNIEQLVARSNILTLMYQCMQDKMPEVRQSSFALLGDLTKACFQHVKPCIADFMPILGTNLNPEFISVCNNATWAIGEISIQMGIEMQPYIPMVLHQLVEIINRPNTPKTLLENTAITIGRLGYVCPQEVAPMLQQFIRPWCTSLRNIRDNEEKDSAFRGICTMISVNPSGVIQDFIFFCDAVASWINPKDDLRDMFCKILHGFKNQVGDENWRRFSDQFPLPLKERLAAFYGV
modifications: left off: GST, end not stated, cleaved
notes: nuclear import receptor karyopherin-β2, recombinant
As for B1, in data set [1], the “Effect of Kapβ2 on FUS droplet formation (turbidity)” value is “kept FUS from changing into liquid-like droplets”. In addition, the “Effect on FUS droplets (microscopy)” value in data set [2] is reported as “FUS droplets are dissolved by Kapβ2”. Besides, in data set [3], the “Effect on hydrogel binding of GFP:FUS-LC:NLS” value is “blocked by Kapβ2”. The “Effect on hydrogel binding of GFP:FUS-LC” value in data set [4] was “not blocked”.

B2: FUS-ΔNLS: FUS (1-500, FUS-ΔNLS) (protein)
chain: MASNDYTQQATQSYGAYPTQPGQGYSQQSSQPYGQQSYSGYSQSTDTSGYGQSSYSSYGQSQNTGYGTQSTPQGYGSTGGYGSSQSSQSSYGQQSSYPGYGQQPAPSSTSGSYGSSSQSSSYGQPQSGSYSQQPSYGGQQQSYGQQQSYNPPQGYGQQNQYNSSSGGGGGGGGGGNYGQDQSSMSSGGGSGGGYGNQDQSGGGGSGGYGQQDRGGRGRGGSGGGGGGGGGGYNRSSGGYEPRGRGGGRGGRGGMGGSDRGGFNKFGGPRDQGSRHDSEQDNSDNNTIFVQGLGENVTIESVADYFKQIGIIKTNKKTGQPMINLYTDRETGKLKGEATVSFDDPPSAKAAIDWFDGKEFSGNPIKVSFATRRADFNRGGGNGRGGRGRGGPMGRGGYGGGGSGGGGRGGFPSGGGGGGGQQRAGDWKCPNPTCENMNFSWRNECNQCKAPKPDGPGGGPGGSHMGGNYGDDRRGGRGGYDRGGYRGRGGDRGGFRGGRGG
modifications: left off: MBP, end not stated, state not stated
Regarding B2, in the data set with Kapβ2, the “Binding site on Kapβ2 by NMR” value was “the binding site for FUS-ΔNLS does not overlap with that for PR20”.
